This data set is described as follows: soluble on expression in E. coli; label from the status in PepcDB or PDB records.
Consider “MAHHHHHHMPRIEISKDVKLTIMSYNIQMLSIPFSVHLNSWTRRNAIIDYICSLDDIYDIDILVLNEVFTKKCYKLLTSGKIKEKFPYHTNVIGRNYKRHDNYNDSSSSTGQKDGLSFHSSDTNINIESSRGISNYVSEQMEYIRKNKENHKNKLSKISEDISENSNSSYNSNFDTITGKRKFFHFVNGGVIVLSKHKILHKHALIYSSGKFPDVFCSKGAIYLKCDVMNKKVNVVATHLQAGDNKEQQKCRWKQIDELSKWVYEGIPSTFIKKFESLFFVGDFNIRYNADRLFLDKVLSDNYLNSYVTKKSLDTTYDSFLNDYCRYIERDYNYKHKYTLDYILVANNSNVEIIVPQTSIQNYYKSLYFIKFFLGIIPYKTTYIHHPSDHFPIYATFLILS”, for which the “soluble on expression in E. coli” value is given as “soluble”.

On to “MGSDKIHHHHHHMQVIKQKLTATCAQLTGYLHQPDTNAHQTNLPAIIIVPGGSYTHIPVAQAESLAMAFAGHGYQAFYLEYTLLTDQQPLGLAPVLDLGRAVNLLRQHAAEWHIDPQQITPAGFSVGGHIVALYNDYWATRVATELNVTPAMLKPNNVVLGYPVISPLLGFPKDDATLATWTPTPNELAADQHVNSDNQPTFIWTTADDPIVPATNTLAYATALATAKIPYELHVFKHGPHGLALANAQTAWKPDANQPHVAHWLTLALEWLADNR”, for which the “soluble on expression in E. coli” value is “not soluble”.

For the sequence “MSLADWQNLDPEAAREAEKYENPIPSRELILAHLSERGAPATRSQLLDEFGLAGEEPEEALRRRLRAMERDGQLIYTRRGAYAPVDKLDLIRGRISGHRDGFGFLIPDDGSDDLFLSPTQMRLVFDGDRALARVSGHDRRGRREGQLVEVIERAHEIVVGRYFEESGIGVVVADNPKIQQEVLIPPGKAGKARHNQFVQVRIEQWPSIHRQAQGEIVEVLGDYMAPGMEIEVALRSYDIPHVWPAAVEKEAAKLKPEVAEKDKEKRVDLRQVPFVTIDGEDARDFDDAVYAEAKRGGGWRLFVAIADVSHYVKVGSALDEEAARRGNSVYFPERVIPMLPEVLSNGLCSLNPLVDRLAMVCEMTLSKAGKLTGYQFYEAVIHSHARLTYTKVSQLLEHPDSVEAENLRQQLPGVVPHLQQLYALYKALLAGRHVRGAIDFETQETRIVFGADRKISEIRPTQRNDAHRLIEECMLCANVATARFLQKHAIPALYRVHDGPPQEKLNNLRQFLGELGLSLGRGKAAPTPGDYQELLEKIHDRADFRLIQTVMLRSLSQAVYSPDNNGHFGLNYDAYTHFTSPIRRYPDLLVHRAIRSVIRSKAETPHVQRAGAASMPKARIYPYDELRLDQLGEQCSMTERRADEATRDVTNWLKCEYMRERVGETFPGVITAVTGFGLFVELTDIFVEGLVHVTALPGDYYHFDAVHHRLSGERTGRSFRLGDTTEVVVARVDLDERKIDFELAGNVLSAPIGRKKRNGDKSANAGKAPKGRKGASVPEVDLEPALASPDAAVVPRRKAGKVQALPPVAPELLAQAAEMLGNTDVRKSREVKQALLAEARVGGKDKGGKKGKVVPAGKSAKGKAKDGKPAAAAKPGKPTKHRKGPSKPKADNAPAATGARKRKAKSEGHHHHHH”, the “soluble on expression in E. coli” value is listed as “not soluble”.

Consider “MKIAITGATGFVGQRLVERLQAEGHELRILSQRPTVAQQLTGCQVFDTATETSWLAALEGADAVVNLAGEPIAEQRWTPAQKQRLKNSRVQTTRALVTAITAATQKPQVLVTASAIGYYGTSETAQFTEESAAGQDYLAEICQAWEQEAQAVTVSGTRLVTLRIGIVVGPGGAIGKMLGPFKLFAGGPIGSGRQWVSWIQREDLVSLILEAIANPSYQGTYNATAPQAVRMADLSATLGEVLQRPSWLPVPAFALEALLGEGALLVLEGQQVLPKRLEAAGFQFRYPDLKSALQQFLPLEHHHHHH”, for which the “soluble on expression in E. coli” value is reported as “not soluble”.

Consider “ERVDEKVFSAGTSIFRGILEKVKAPLMYGDREVWGMARASEDFFFILPVTDDLTPVLFYNRLTNEPCFVSDQGITEYFKFAQEGDYIEVEGSSVFMANLLYYRFFPTRITSYNAPIEGVVSKTGNPAFTIPMLPGVSDCIEISNNRKVFLTNQLGVVNITDGMEPPIIAGVSASYGSSVRVYGHVSQRWDIIGHCYLDIYPTNCYPLSTKPVAGDDEVFVKQQGRQIEIDSNSPIVQVVVYDLEGKSVFRKRMTENA”, for which the “soluble on expression in E. coli” value is given as “not soluble”.

“MYSNVQPFINSDLTNCFQSQYTEIESLLFNLLDSPVKYTKHIGGTHHFKYSTEPILDILVGVENLHDITSLDEKRLNYVGFYRLHHKYTKKVMMAKFNNFHELKQQVRLHIIQMNTQTFESYLALDYLLSTNDDIALQFNTKKHQILQHSLTIRQYEMQKQQYFEKLCKKY”: the “soluble on expression in E. coli” value was “not soluble”.

“MGSDKIHHHHHHSNKPEGVIGPFQLVIETKESYLPNDPLDVRVKVFNREKKKENLVLEDFVFSIKRENDTVYEFHFPQRVEKEMEAFESVLVFDLLREEELSNLPGGNYTITVSVKLNGQRVVISKVVSVIEKWQIEVEDLKDFYFPYENVHFFVYLENISSKSRKIRVESIGLIILKGNEAVFERDIPIEKDFVINPMMVEQIHEVSFSAPKESGDYIIKLKLKTESSLIEKSIPLFVTREYQKDLKGLSLVIEGKKFVASGERYDFSVKLLNEEKKRKYIVLKNIMIVLTHKEPVFSYAYSEEYRMTIEGYSSREIFKTTSYDIIKLEDPGTYKLIVVIESEEDRLMKEMEIVVSE”: the “soluble on expression in E. coli” value is on record as “not soluble”.

In the case of “MDRVALKPFRRIAVILLAGAVIATSTSCSRDERKKEEEKHLESMMSILVQVQKNLGRIRQKEAVVVRLSSDVEGRKPKSAEQIGREINTNIRFIDSTLSASKNLVATLEKQNHESQYRIAALDRMTGQLKGELDKKELELGAMKREIAKLNRQIARLTNTVDVMDEAISDQEDQMVKAYYVVGTVDQLVSKGILVPPGPFSRFFGMRPVLANDFDLRPFRQVDITETKDIYFDKPVSRLHVITPHTKGSYELVGGKTSSLLLIRNEAEFWKKSRCLVIVVE”, the “soluble on expression in E. coli” value is “not soluble”.

Turning to “MAAEKKVFVIFDHQEQRHDQPWPSYHIEVPRRLDAILERLNTTKLLTDPRIEHIPRREAEESEILAVHTKRYVDDVKSTETMTVEQQESFCTKYEDIYVNSATWHRAKLAAGASIDLMTSVMAAKRPGIAFIRPPGHHAMPDEGCGFCIFNNVAIAAKAAIQNGQKVLIVDYDVHAGNGTQECVEQMGEGNVQLISIHRYENGHFWPNMPQTGIYHNYKNTINLPLNTIGLTDADYHALFTHIILPTIHAFQPDLLLVSSGFDASIGDPEGSMQVTPAGFATMIRMLIDTGIPVAALLEGGYFLDALAADSEWVLRALLGEEIPRIRVEKIHSAIADTIGRVVKRYEGSCPFFKKVQELRGILGCRVAEEDQQEEATDYTGERTVHPPYETRGIYTPFTEQKVAEFKDQLESILASYTTPPDFSAETEAFHSAIAPHSSEINDFYFGVHEDKILLGTSPAVRLFFELLFTAPYDPKHTIKLYGKVKPEDFGKIELDSRSLGEMKNISIFNNLPIFQL”, the “soluble on expression in E. coli” value was “not soluble”.

Take “MSLNLPFRAMVSDLDGTLLTPEHLVGDLTIDTLRALEQKGVDIILATGRNHTDVSSILGKIGAERAVMITSNGARVRDLQGNLLYSNSLPEELVLELYKTPFDTSKVCMNSYQDEGWFTNKDIPAMRQFHKESGFDYNVVDFSKHHGRGTEKVFFIGKTPEDLVEVETYLRDKFGDVTTIVYSALACLEVMNKNVSKGDALKHLLESREYELKDCIAFGDGMNDVEMLSWAGKGCIMKDADIRLKMACPELEVIGSNKEESVARYLRTQFGLDYEGHHHHHH”: the “soluble on expression in E. coli” value was “soluble”.

Consider “MSLKMETGKLLMELSNLDGPSGYETNVVSYIKSVIEPFVDEAKTTRHGSLIGYKKGKGIGKLAFFAHVDEIGFVVSKVEGQFARLEPVGGVDPKVVYASKVRIYTKNGIERGVIGMLAPHLQDSESRKKVPTYDEIFVDLSLCERGVRVGDIAVIDQTAFETNGKVVGKALDNRASCGVLVKVLEFLKRYDHPWDVYVVFSVQEETGCLGALTGAYEINPDAAIVMDVTFASEPPFSDHIELGKGPVIGLGPVVDRNLVQKIIEIAKKHNVSLQEEAVGGRSGTETDFVQLVRNGVRTSLISIPLKYMHTPVEMVDPRDVEELARLLSLVAVELEVEGGSHHHHHH”, for which the “soluble on expression in E. coli” value is listed as “soluble”.

As for “MGSDKIHHHHHHMTGLSQSQASPMQIQPGNAAFNPWTDAALDTIRDVNQALTLYAEMRVVPAHHDAFLAAIDTVSAKLRVLPGFLSLALKQMSGDSTMVKNYPETYKGVLATAYLDGVAAGTQPYFYNLFVRFADGRAARAAGFEALFETHIHPLLHAMAPRGGDGPELLAYRAVLQSVVAGDRHAIYRGAEEIRSFLRRPVELPERETVTVENHVMVPEDKHAAWEPQVAILLQVAQDTFEPQDEPSGVGLPGARDNRYYRKALSTEILRNAHADGGLRAYIMHGVWESVWDHENSHLDPRFLAAAGPVGAAAVVGPVEPFYLTRRLVVAD”, the “soluble on expression in E. coli” value is “not soluble”.

In the case of “MDFLDFEKVFSFYSKATKKGFSPFFVPALEKAEEPAGNFFLDRKGNLFSIREDFTKTVLNHRKRYSPDSQIKVWYADFVYRYSGSDLVAEYQLGLEKVPRNSLDDSLEVLEIIVESASEFFEGPVIVEIGHTGVYEDLLKEIPKDLHEKVLNLIDTKNLAEIEFLSHMKKIDLSRVEKIIEDSIYRRSPEHLKTMDLPLSVREDLLSASSFLQEKFPTVSVEIDLTLARTIEEYCGLIFTIYDTSSSRLVAAGGEYTVNGEKGVGGSIFLEGKTC”, the “soluble on expression in E. coli” value was “soluble”.

Take “TDAMSEEEIKIIINNSYNGGEINQTELAYMQNIFSFDERHAKDIMVPRTQMVTLNEPFNVDELLDTIKEHQFTRYPITEDGDKDHVKGFINVKEFLTEYASGKPIKIANYIHELPMISETTRISDALVRMQREHVHISLIIDEYGGTAGILTMEDILEEIVGEIRDEFDDDEVNDIVKLDDHTY”: the “soluble on expression in E. coli” value is on record as “not soluble”.

On to “VALESATVGSMHERTVRARTATGIVEGFTRDGVHRWRSIPYARAPVGSLRFRAPQPAQPWPGVRHCHTFANCAPQQRRYTVMGIGRYQTRSEDCLTLNVVTPEEPATQPLPVMVFIHGGGYILGSSATPIYDGAALARRGCVYVSVNYRLGALGCLDLSSLSTPQITLDSNVYLRDLVLALRWVHDNIAEFGGDPGNVTIFGESAGAHITATLLAVPAAKGLFARAISESPAAGMVRSREVAAEFAARFANLIGARTQDAANALMQASPAQLVEAQHHLIRQGMRKRLGAFPIGPVFGDDYLPMDPVEAMRSGRVHAVPLIVGTNAEEGRLFTRFLGMLPTNEPMVEELLSGMKPADRERITAAYPNYPAPSACIQLGGDFAFSSAAWQIAEAHGANAPTYLYRYDYAPRTLRWSGFGATHATELFAVFDIYRTRFGALLTAAADRRAALRVSNEVQRRWRCFSQIGVPGDDWPAYTQDDRAVLVFDRRCRIEFDPHQHRRIAWDGFSLAN”, for which the “soluble on expression in E. coli” value is on record as “not soluble”.

As to “MSSEKRVGMVEKSNNKRQRVNQVPVFSINDHHDVLVEILRRLDGSSLCSAACVCRLWSAVARNDSIWEELCFRQVSPRPSLSLRSVVSALGGYRCLYFLCIRPVLARLPKLLWTRDQLQLSLSLYCVHYYERLYVGAWLGDAPPSSLIFLRKPVNVV”, the “soluble on expression in E. coli” value is “soluble”.

Regarding “MGSDKIHHHHHHMTTHSHTLTIAGQPLHYTDQGQGNTLVFIHGLLGNKVQWQSQIDALKANYRCIAIDLWGHGDSQTMPENTANLKDIASQLLSMLTALNINSCSLISLGTGCAIASEMALLSPKNINALVMINGFIGFEPEVNCVKYQGMLDEVQLNNGISTALAKQIATLFFNTQAQKTAVKTDTVTNAVTNEIESASVDSQISDKAMAALAQQLTEINAVQLSALVKFVPMAIYKRDTLEDVERFCLPSLILASNNNKLRTPLEAYLMQDTLDGSQLTQIPNAGHWVHLEQAEQLKQLISQFLQQH”, the “soluble on expression in E. coli” value is recorded as “not soluble”.

The record behind these values is the DeepSol protein solubility set.
